Measured values from PMC5749176.

B1: Shape-1 (dsDNA)
DNA 1: GGCCAAAAAGAACACCGTGTACTTTTGGGCT
DNA 2: AGCCCAAAAGTACACGGTGTTCTTTTTGGCC
B2: Shape-2 (dsDNA)
DNA 1: GGGCGGAGGGTACACCGTGTACTCTTCCCCC
DNA 2: GGGGGAAGAGTACACGGTGTACCCTCCGCCC
B3: Shape-4 (dsDNA)
DNA 1: GGGCGTTCGGGACATAATGGCGGGAACCCCC
DNA 2: GGGGGTTCCCGCCATTATGTCCCGAACGCCC
B4: Shape-3 (dsDNA)
DNA 1: AAACAAAAAGAACACCGTTTTATTTTGGTGT
DNA 2: ACACCAAAATAAAACGGTGTTCTTTTTGTTT

How the values were obtained:
AR-DBD = AR-DBD (human, UniProt P10275 557-647); assay: EMSA
GR-DBD = GR-DBD (human, UniProt P04150 418-506); assay: EMSA
Sequence of GR-DBD (P04150 418-506): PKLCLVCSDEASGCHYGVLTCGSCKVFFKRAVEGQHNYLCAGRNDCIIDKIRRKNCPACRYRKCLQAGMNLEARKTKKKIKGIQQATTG

Sequence of AR-DBD (P10275 557-647): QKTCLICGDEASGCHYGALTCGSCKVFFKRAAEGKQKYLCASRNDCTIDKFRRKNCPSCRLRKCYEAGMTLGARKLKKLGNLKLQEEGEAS

Binder	binding result (AR-DBD)	binding result (GR-DBD)
B1	binds	
B2	binds	
B3		binds
B4	binds	
